Substitutions are numbered along the chain they refer to. Values belong to the binder of their own block, whether it stands above or below them.
Tests used:
[1] = biological target: 人源PGI蛋白 (human pepsinogen I from human gastric mucosa, Lee Biosolutions, cat. 440-50) (human) (UniProt P0DJD8); test: indirect ELISA, human-derived PGI coated at 2 ug/mL, culture supernatant diluted 50-fold
[2] = biological target: T1, 重组PGI蛋白 (recombinant pepsinogen I protein, expressed in HEK293 cells) (Homo sapiens (Human), UniProt P0DJD9 16-388, limits assumed); test: indirect ELISA screen of hybridoma supernatants on coated recombinant PGI
T1 construct: Immunogen and ELISA coating antigen; also called PGI重组蛋白; 重组蛋白
T1 sequence (P0DJD9 other isoform, or with tags, fused parts or gaps limits assumed): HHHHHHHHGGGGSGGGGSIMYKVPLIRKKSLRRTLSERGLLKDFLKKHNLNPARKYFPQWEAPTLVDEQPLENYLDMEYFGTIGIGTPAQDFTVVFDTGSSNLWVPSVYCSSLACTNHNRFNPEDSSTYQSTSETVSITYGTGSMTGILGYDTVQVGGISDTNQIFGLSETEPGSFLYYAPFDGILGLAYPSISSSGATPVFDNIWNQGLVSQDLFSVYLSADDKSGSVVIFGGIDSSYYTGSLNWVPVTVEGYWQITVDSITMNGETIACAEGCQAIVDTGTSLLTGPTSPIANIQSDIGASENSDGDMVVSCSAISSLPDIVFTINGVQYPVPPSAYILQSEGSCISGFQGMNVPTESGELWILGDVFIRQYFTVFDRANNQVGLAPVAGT

Chain of UniProt P0DJD8 (P0DJD8 16-388): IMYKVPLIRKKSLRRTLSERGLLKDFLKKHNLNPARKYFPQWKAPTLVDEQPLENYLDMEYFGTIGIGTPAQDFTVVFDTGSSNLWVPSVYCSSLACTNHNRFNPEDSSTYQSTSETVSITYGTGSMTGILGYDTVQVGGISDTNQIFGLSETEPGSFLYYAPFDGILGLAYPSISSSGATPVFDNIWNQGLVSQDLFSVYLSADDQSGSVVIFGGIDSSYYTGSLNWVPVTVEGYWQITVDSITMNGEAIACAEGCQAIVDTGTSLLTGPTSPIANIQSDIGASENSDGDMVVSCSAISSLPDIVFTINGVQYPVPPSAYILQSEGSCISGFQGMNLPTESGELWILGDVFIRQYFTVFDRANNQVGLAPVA

OD450 [1]: 2.04 OD450
B1: 鼠单克隆抗体36A2 (antibody, V domains shown)
VH: EIQLQQSGPELVKPGASVKVSCKASGYSFTDYNIYWVKQGHGESLEWIGYIDPYNGDTDYNQKFKDRSTLTVDKSSNTAFMHLNSLTSEDSAVYYCARSRNYYGSSFAYWGQGTLVTVSA
VL: DVLMTQTPLSLPVSLGDQASISCRSSQAIVHGNGNTYLEWSLQKPVHSPKLLIFKVSNRFSGVPDRFSGSGSGTDFTLKISRVEAEDLGVYYCFQGSHVPPTFGGGTKLEIK

OD450 [1]: 1.87 OD450
binding result [2]: binds
B2: 鼠单克隆抗体3D9 (antibody, V domains shown)
VH: QVQLQQSGAELAKPGAAVKMSCKASGYTFTSHWMHWVNQRPGQGLEWIGYINPTTGYSEYNQKFKDKATMTADKSSSTAYMHLRSLTSEDSAVYYCARGAYYYGSSRFDYWGQGTTLTVSS
VL: B1 VL with A28T, G32T, S41Y, V46G, H47Q, F54Y, P101W
notes: Mouse monoclonal antibody from a hybridoma; also called 第一单抗

Reference: patent CN114835815A (NINGBO SAIPO BIOTECHNOLOGY CO LTD, dated 2022)
